T1: Boi1 SH3 (BOI1_YEAST), P38041
T1 chain: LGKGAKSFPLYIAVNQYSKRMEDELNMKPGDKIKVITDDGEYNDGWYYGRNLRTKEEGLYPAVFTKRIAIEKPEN

T2: Boi2 SH3 (BOI2_YEAST), P39969
T2 chain: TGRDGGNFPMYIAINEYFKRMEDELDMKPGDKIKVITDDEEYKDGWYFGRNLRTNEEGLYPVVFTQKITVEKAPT

T3: Myo5 SH3 (MYO5_YEAST), Q04439
T3 chain: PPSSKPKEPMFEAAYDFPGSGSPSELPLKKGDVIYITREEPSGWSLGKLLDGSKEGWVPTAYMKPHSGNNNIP

T4: Rvs167 SH3 (RV167_YEAST), P39743
T4 chain: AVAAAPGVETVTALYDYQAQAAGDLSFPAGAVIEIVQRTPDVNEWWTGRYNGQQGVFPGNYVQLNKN

T5: Yfr024 SH3 (LSB3_YEAST), P43603
T5 chain: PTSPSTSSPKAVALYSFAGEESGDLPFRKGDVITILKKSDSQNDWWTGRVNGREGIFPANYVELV

T6: Yhr016c SH3 (YSC84_YEAST), P32793
T6 chain: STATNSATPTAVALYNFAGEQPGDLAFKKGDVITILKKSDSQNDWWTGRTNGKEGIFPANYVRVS


Tests used:
Experiment in all cases: SPOT array
[1] = target: T1, Boi1 SH3 (BOI1_YEAST), P38041
[2] = target: T2, Boi2 SH3 (BOI2_YEAST), P39969
[3] = target: T3, Myo5 SH3 (MYO5_YEAST), Q04439
[4] = target: T4, Rvs167 SH3 (RV167_YEAST), P39743
[5] = target: Sho1 SH3 (SHO1_YEAST), P40073
[6] = target: T5, Yfr024 SH3 (LSB3_YEAST), P43603
[7] = target: T6, Yhr016c SH3 (YSC84_YEAST), P32793

Sequence of Sho1 SH3 (SHO1_YEAST), P40073 (P40073 295-366): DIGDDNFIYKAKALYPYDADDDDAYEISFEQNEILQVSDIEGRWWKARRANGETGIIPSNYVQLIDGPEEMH

Row | normalised SPOT signal, Boehringer light units (BLU); mean over the file's lines of this peptide [1] | normalised SPOT signal, Boehringer light units (BLU); mean over the file's lines of this peptide [2] | normalised SPOT signal, Boehringer light units (BLU); mean over the file's lines of this peptide [3] | normalised SPOT signal, Boehringer light units (BLU); mean over the file's lines of this peptide [4] | normalised SPOT signal, Boehringer light units (BLU); mean over the file's lines of this peptide [5] | normalised SPOT signal, Boehringer light units (BLU); mean over the file's lines of this peptide [6] | normalised SPOT signal, Boehringer light units (BLU); mean over the file's lines of this peptide [7] | Binder
1 | 1310 | 646 | 1000 | 1550 | 649 | 4850 | 1230 | INNNKMRPHLPPLS [YHR102W 535-548]
2 | 53.6 | 71.3 | 93.2 | 80 | 9.5 | 82.5 | 40.5 | ILEGKFEPVIPREW [YCL047C 191-204]
3 | 327 | 149 | 322 | 240 | 100 | 348 | 55.5 | ILKNRMNPEKPYEL [YBL034C 850-863]
4 | 100 | 23.2 | 184 | 50.3 | 19 | 12.1 | 33.2 | INGEKASPFLPSSL [YNL023C 312-325]
5 | 53.5 | 20.4 | 196 | 10.4 | 42.9 | 0 | 2.8 | INIAKAHPNFPIAL [YKL182W 717-730]
6 | 128 | 26.2 | 175 | 26.4 | 25.9 | 69.6 | 22.6 | ILAVKKNPQSPMYT [YER126C 197-210]
7 | 37.3 | 11.5 | 167 | 73.4 | 14500 | 110 | 14.5 | INTFKTLPTKPEMQ [YDL202W 181-194]
8 | 1780 | 19.9 | 603 | 138 | 99.1 | 354 | 35.3 | ILERKNIPRQPAIR [YDL034W 13-26]
9 | 75.5 | 1.3 | 149 | 36.9 | 49.4 | 24.3 | 19.4 | INVEREAPMFPVPY [YHR014W 144-157]
10 | 121 | 42.4 | 246 | 213 | 94.3 | 813 | 84.6 | IMDAKFHPFKPQLF [YMR049C 642-655]
11 | 152 | 16.2 | 340 | 457 | 5680 | 1840 | 1500 | ILFERILPILPVES [YOL081W 29-42]
12 | 227 | 29 | 3670 | 17600 | 38.5 | 3560 | 3210 | ILPPRIVPAIPKKA [YNL064C 352-365]
13 | 58.4 | 6.8 | 140 | 31.5 | 42.9 | 58.4 | 7.1 | INNTRLSPNSPTPP [YER164W 1330-1343]
